Data from the nanobody polyreactivity screen of Harvey et al. (2022).

assay: yeast display, Sf9 membrane polyspecificity reagent, FACS + sequencing; frameworks hold sequencing errors
Method in brief: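 Nanobodies came from a synthetic yeast display library in Saccharomyces cerevisiae BJ5465, induced with galactose for 36–48 hours and stained for 1 hour at 4 °C with 10% biotinylated, detergent-solubilized Sf9 membrane reagent. Cells were enriched on streptavidin microbeads and then FACS-sorted, with low and high (top ~1%) gates set on anti-HA fluorescence for expression and streptavidin fluorescence for reagent binding. Each polyreactivity label reflects the gate a clone came from. Genes were amplified by colony PCR, sequenced by MiSeq 2 × 250 and filtered by CDR length.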

Row | Sequence | polyreactivity (PSR sort gate)
1 | QVQHVESGGGLVQAGGSLRLSCAASGSIFNTYTMGWYRQAPGKERELVAAISSGGSTYYADSVKGRFSISRDNAKNTVYLHMNSLKPEDTAVYYCAAYGHSFQIYDYWGQGTQVTVSS | low polyreactivity
2 | QVQLVESGGGLVQAGGSLRLSCAASGSTFNRYAMGWYRQAPGKERELVAAISSGGTTYYADSVKGRFTSSRDNAKNTVYLQMNSLKPEDTAVYYCNARKYGWVQRIIIYDYWGQGTQVTVSS | high polyreactivity
3 | QVQLVESGGGLVQAGGSLRLSCAASGRILSYYPMGWYRQAPGKERELVAVIRRGASTYADSVKGRFTISRDNAKKTVYLQMNILKPEDTAVYYCAAADRDYTTFRYDYWGQGTQVTVSS | low polyreactivity
4 | QVQLVESGGGLVQAGGSLRLSCAASGSTLRYYAMGWYRQAPGKERELVARIRSNGGSTYYADSVKGRFTISRDNAKNTVYLQMNSLKPEDSAVYYCAARTYRGQYYTGFGFGYWGQGTQVTVSS | high polyreactivity
5 | QVQLVESGGGLVQAGGSLRLSCAASGIIFGYYAMGWYRQAPGKERELVAAISRGGNTNYADSVKGRFTISRDNAKNTVYLQMNSLKPEDTAVYYCAADFWSRIKYFYAVDVDYWGQGTQVTVSS | low polyreactivity
6 | QVQLVESGGGVLQAGGSLRLSCAASGRIFYRYPMGWYRKAPGKVRELVAAISGSVGSTYADSVKGRLTISRDNAKNTVYLQMKSMKPEDTAVYYFDRETYRRYGAYDYWGQGTQVTVSS | low polyreactivity
7 | QVQLVESGGGLVQAGGSLRLSCAASGITFVRYAMGWYRQAPGKEREFVARISRSGASTYYADSVKGRFTISRDNAKNTVYLQMNSLKPEDTAVYYCNKVYISREDYWGQGTQVTVSS | high polyreactivity
8 | QVQLVESGGGLVQAGGSLRLSCAASGRTFWKYVMGWYRQAPGKERELVAVISRPAGSTYYADSVKGRFTISRDNAKNSVYLQMNSLKPEDTAVYYCAKRPKNKPVLGDYDHWGQGTQVTVSS | low polyreactivity
9 | QVQLVESGGGLVQAGGSLRLSCAASGSIFYKYAMGWYRQAPGKERELVATIRASGGRTYYADSVKGRFTISRDNAKNTVYLQMNSLKPEDTAVYYCAKYTTRGVYRSWPKDMDYWGQGTQVTVSS | low polyreactivity
10 | QVQLVESGGGLVQAGGSLRLSCAASGRIFTANAMGWYRQAPGKERELVAAITTSDGTYYADSVKGRFTISRDNAKNTVYLQMNSLKPEDTAVYYCATDTATYPTAMDYWGQGTQVTVSS | low polyreactivity
11 | QVQLVESGGGLVQAGGSLRLSCAASGYIFDRYAMGWYRQAPGKERELVAAISGRGGSTYYADSVKGRFTISRDNAKNTVYLQMNSLKPEETAVYYCARDVYVRNGQRARYDSWGQGTQVTVSS | high polyreactivity
12 | QVQLVESGGGLVQAGGSLRLSCAASGSIFSNNAMGLYRQAPGKVSELVASITFSGGNTYYADSVKGRFTISRDNAKNTVYLQMNSLKPEDTAVYYCNADRYPVGTAREYDSWGQGTQVTVSS | low polyreactivity
13 | QVQLVESGGGLVQAGGSLRLSCAASGIIFHWYAMGWYRQAPGKERELVAAITQSGGSTSYADSVKGRFTISRDNAKNTVYLQMNSLKPEDTAVYYCAKDYAYTLWENYYAFNYWGQGTQVTVSS | low polyreactivity
14 | QVQLVESGGGLVQAGGSLRLSCAASGFTFTSYAMGWYRQAPGKEREFVAAIRRSGSGTYYADSVKGRFTISRDNAKNNVYLQMNSLKPEDTAVYYCAFVPPRLYYHYDYWGQGTQVTVSS | high polyreactivity
15 | QVQLEESGGGLVQAGGSLRLSCAASGRIFSRYAMGGYRQAPGKERELVAAITQSGTSTYYADSVKGRFTISRDNAKNTVYLQMNSLKPEDTAVYYCNAYRQYRYDYWGQGTQVTVSS | low polyreactivity
16 | QVQLVESGGGLVQAGGSLRLSCAASGSIFYDYTMGWYRQAPGKERELVAAITSDGSTYYADSVKGRFTISRDNAKNTVYLQMKSLKPEDTAVYYCAVFSDVFLYYYGETYDYWGQGTQVTVSS | high polyreactivity
17 | QVQLVESGGGLVQAGGSLRLSCAASGLIFPSYAMGWYRQAPGKERELVAGINSGGSTNYADSVKGRFTISRDNAKNTVYLQMNSLKPEDTAVYYCAKDNNYYWYVSPRDYWGQGTQVTVSS | low polyreactivity
18 | QVQLVESGGGLVQAGGSLRLSCAASGRTFYKYAMGWYRQAPWKERELVAAISSDGTTYYADSVKGRFTISRDNAKNTVYLQMNSLKPEDTAVYYCAKDRKYADNDYWGQGTQVTVSS | low polyreactivity
19 | QVQLVESGGGLVQAGGSLRLRCAASGSIFYRNAMGWNRQAPGKERELVSANTRTGGSTYYADSVQARFTISRDNAKNTVYLQMNSLKPEDTAVYYCPAETWYRWPRSAWRFDYWGQGTQVNVSS | high polyreactivity
20 | QVQLVESGGGLVQAGGSLRLSCAASGRTFGPNGMGWYRQAPGKERELLAVITSSGGRTYYADSVKGRFTISRDNAKNTVYLQMNSLKPEDTAVYYCAADAKKFGGTKNAELDYWGQGTQVTVSS | low polyreactivity
21 | QVQLVESGGGLVQAGGSLRLSCAASGSISSYYAMGWYRQATGKERELVAAISKSGGSTYYADSVKGRFTISRDNAKNTVYLQMNSLKPEDSAVYYCAARDYGWRYYRKYDYWGQGTQVTVSS | high polyreactivity
22 | QVQLVESGGGLVQAGGSLRLICAASGIIFSEYAMGWYRQAPGKERELVAVITSGGSTYYADSVKGRFTISRDNAKNTVYLQMNSLKPEDTAVYYCAARGYRYPMYWGQGTQVTVSS | high polyreactivity

Row | Sequence | polyreactivity (PSR sort gate)
23 | QVQLVESGGGLVQAGGSLRLSCAASGRFFGRHAMGWYRQAPGKERELVAVISKRGSSTSYADSVKGRFTISRDNAKNTVYLQMNSLKPEDTAVYYCNVFRVAYYATSTYGYDYWGQGTQVTVSS | high polyreactivity
24 | QVQLVESRGGLVQAGGSLRLSCAASGSTLYLYALGWYRQAPGKERELVAAISQSGTRTYYADSVKGRFTISRDNAKNTVYLQMNSQKPEDTAVSYCAAGRYQPYSYDYWGQGTQVTVSS | high polyreactivity
25 | QVQLVESGGGLVQAEGSLRLSCAASGSTLLYAMGWYRQAPGKERELVAAISIGDSTNYADSVKGRFTISRDNAKNTVYLQMNSLKPEDTAVYYCNADQGSNYYWGQGTQVTVSS | low polyreactivity
26 | QVQLVESGGGLVQAGGSLRLSCAASGFIFDSYAMGWYRPAPGKERELVATITKGGGRTYYADSVKGRFTISRDNAKNTVYLQMNSLKPEDTAVYYCNARGFSRRKGLDYWGQGTQVTVSS | low polyreactivity
27 | QVQLVESGGGLVQAGGSLRLSCAASGRIFLVNAKGWYRQAPGKERELVAAITYSGRSTYYAYSVKGRFTISRDNAKNTVYLQMNSLKPEDTSLYYCAALHHTQHDYWGQGTQVTVSS | low polyreactivity
28 | QVQLVESGGGLVQAGGSLRLSCAASGSTFNYYAMGWYRQAPGKERELVAVITNGGTTYYADSVKGRFTISRDNAKNTVYLQMNSLKPEDTAVYYCAAALLGRSKRFYYWGQGTQVTVSS | high polyreactivity
29 | QVQLVESGGGLDQAGGSLRLSCAASGRTFPYNTMGWYRQAPGKERELVASITYTDGSTSYADSVKGRFTISRDNAKNTVYLQMNSLKPEDTSVYYCAADYYAHQDYRFDYWGQGTQVTVSS | low polyreactivity
30 | QVHLVESGGGLVQEGGSLRLSCPACGSTIRGNAMGWYRQAPGKERELVADITRNGGRTYYADSVKGRFTISRDNAKNNVYLQMNSLKPEDTAVYYCAKRDAYCVTQRNMDYWGQGTQVTVSS | high polyreactivity
31 | QVQLVESGGGLVQAGGSLRLSCAASGFTFPYYAMGWYRQALGKERELVAGISRGGSTYYADSVKGRFTISRDNAKNTVYLQMNSLKPEDTAVYYCAADRYIGQYTYYYWGQGTQVTVSS | high polyreactivity
32 | QVQLVESGGGLVQAGGSLSLSCAASGSTFGLNASGWYRQAPGKEREFVAAITSGGTYYADSVKGRFTISRDNAKYTVYLHMYSLKPEDTSVYYCAADGTWSIYGGMYYWGQGTQVTVSS | low polyreactivity
33 | QVQLVESGGGLVQAGGSLRLSCAASGSTFEYYAMGWYRQAPGKERELVAAISTGGSTYYADSVKGRFTISRDNAKNTVYLQMNSLKPEDTAVYYCAALYRTSYVRMGYWGQGTQVTVSS | high polyreactivity
34 | QVQLVESGAGLVQARGSLRLTCAASGGTFLSYAKGWYRQAPGKERELVAGISSGGSTNYADSVKGRFTISRDNAKNTVYLQMNSLKPEDTAVYYCAADSFPSEFDYWGQGTQVTVSS | low polyreactivity
35 | QVQLVESGGGLVQAGGSLRLSCAASGSTFRYYTMGWYRQAPGKERELVADITIGGSTYYADSVKGRFTISRDNSKNSVYLQMYSLKPEDTAVYYCAARSTGGRIFATGVAYAYWGQGTQVTVSS | low polyreactivity
36 | QVQLVESGGGLVQAGGSLSLSCAASGRTFANYAMGWYRHAPGKETEFVAVITYSGGNTYYADSVKGRFTISRDNAKNTVYLQMNSLKPEDTAVYYCAKGRPYRNGLYYYWGQGTQVTVSS | high polyreactivity
37 | QVQLVESGGGLVQAGGSLRLSCAASGRIFVHNAMGWYRQAPGKERELVAAIRSSGGRTYYADSVKGRFTISRDNAKKTVYLQMNSLKPEDTAVYYCAARFDTTRVGYWGQGTQVTVSS | high polyreactivity
38 | QVQLVESGGGLDQAGGSLRLSCAPSGSIFGSYAMGWYRQAPGKERELVAAIRRSSASTYYADSVKGRFTISRDNAKNTVYLQMNSLKPEDTAVYYCATQSYSDYGYRYRYAAYDYWGQGTQVTVSS | high polyreactivity
39 | QVQLVESGGGLVQAGGSLRLSRDASGIIIYDYDIGWYRKAPGKERELVAAITSSGGSTYYADSVKGRFTLSRDNAKNTVYLQMNSLIPEDTAVYYCAAATRGSGRRYDYWGQGTQVTVSS | high polyreactivity
40 | QVQLVESGGGLVQAGGSLRLSCAASGSTFYYHGRGWSRQAPGKERELVAVISISGGSTYYADSVKGSFTISRDNAKNTVDLQMNSLKPEDTAVYYCATSYVGRSAYRSYGARGGYWGQGTQVTVSS | low polyreactivity
41 | QVQLVESGGGLVQAGGSLRLSCAASGIIFRYNALGWYRQAPGKERELVSPISVSGGSTYYADSVKGRFTISRDNAKNTVYLQMNSLQPEDTAVYYCAALLYRYGVHQAEHDYWGQGTQVTVSS | high polyreactivity
42 | QVHLVESGGGLVQAGGSLRLSCAASGRIFARYAMGWYRQAPGKEREFVASISFRGGSTYYADSVKGRFTISRDNAKNTVYLQMNSLKPEDTAVYYCAAEGYTRAYSGFYWYDYWGQGTQVTVSS | high polyreactivity
43 | QVQLVESGGGLVQAGGSLRLSCAASGSTFVRNGMGWYRKAPGKERELVAAITRGGSTYYADSVKGRFTISRDNAKNTVYLQMNSLKPEDTAVYYSAKRYRGGYYYPYNYWGLGTQVTVSS | high polyreactivity
